Results published in patent US20040038340.

What was measured:
[1] = molecular target: T1, HPr(His)6 from B. subtilis, P08877
T1 chain: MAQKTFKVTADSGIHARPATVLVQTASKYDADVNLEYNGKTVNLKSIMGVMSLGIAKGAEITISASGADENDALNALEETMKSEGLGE

[2] = molecular target: T2, P-Ser-HPr(His)6 from B. subtilis, P08877
T2 chain: T1 chain

B1: His-tagged L. casei HprK (protein)
chain: MADSVTVRQLVKATKLEVYSGEEYLDQRQVVLSDISRPGLELTGYFNYYPHERIQLFGRTEISFARNMSSEERLLILKRMATEDTPAFLVSRGLEAPAEMITAATAAHIPVLGSRLPTTRLSSLITEYLDSQLAERRSMHGVLVDIYGLGVLITGDSGVGKSETALELVQRGHRLIADDRVDVYQQDEQTIVGAAPPILSHLLEIRGLGIIDVMNLFGAGAVREDTTISLIVHLENWTPDKTFDRLGSGEQTQLIFDVPVPKITVPVKVGRNLAIIIEVAAMNFRAKSMGYDATKTFEKNLNHLIEHNEETDQNSSGDK
Q: B1 was tested. Which “HPr kinase activity (ATP-dependent HPr phosphorylation, non-denaturing gel)” value [1] did it give?
A: Its value is “HprK of L. casei was indeed found to be bifunctional”.

Q: What about the “P-Ser-HPr phosphatase activity (non-denaturing gel)” value [2] of the same protein?
A: Its value is “HprK of L. casei was indeed found to be bifunctional”.
